The source of these data is patent US20220275049A1 (AGENUS, published 2022).

Broadly, the Kd is the free concentration of one partner at which half of the binding sites on the other are occupied at equilibrium, for simple one-to-one binding.

Square brackets hold non-standard residues; d marks the D form. Ends that are not written are not given here. pY = N[C@@H](Cc1ccc(OP(=O)(O)O)cc1)C(=O)O; pT = C[C@@H](OP(=O)(O)O)[C@H](N)C(=O)O; pS = N[C@@H](COP(=O)(O)O)C(=O)O

To fix the notation:
B1: TVFsPTLPAA (peptide)
peptide: TVF[pS]PTLPAA
B2: SISsMEVNV (peptide)
peptide: SIS[pS]MEVNV
B3: SLHDIQLsL (peptide)
peptide: SLHDIQL[pS]L
B4: LPRPAsPAL (peptide)
peptide: LPRPA[pS]PAL
B5: SLFsSEESNL (peptide)
peptide: SLF[pS]SEESNL
B6: SLFsSEESNLGA (peptide)
peptide: SLF[pS]SEESNLGA
B7: SLFsGDEENA (peptide)
peptide: SLF[pS]GDEENA
B8: yLQSRYYRA (peptide)
peptide: [pY]LQSRYYRA
B9: VLFSsPPQM (peptide)
peptide: VLFS[pS]PPQM
B10: YRYsPQSFL (peptide)
peptide: YRY[pS]PQSFL
B11: SLQsLETSV (peptide)
peptide: SLQ[pS]LETSV
B12: AVRPTRLsL (peptide)
peptide: AVRPTRL[pS]L
B13: RLSsPLHFV (peptide)
peptide: RLS[pS]PLHFV
B14: RLLsAAENFL (peptide)
peptide: RLL[pS]AAENFL-OH
modifications: N-terminus assumed
SMILES: CC(C)C[C@H](NC(=O)[C@H](Cc1ccccc1)NC(=O)[C@H](CC(N)=O)NC(=O)[C@H](CCC(=O)O)NC(=O)[C@H](C)NC(=O)[C@H](C)NC(=O)[C@H](COP(=O)(O)O)NC(=O)[C@H](CC(C)C)NC(=O)[C@H](CC(C)C)NC(=O)[C@@H](N)CCCNC(=N)N)C(=O)O
B15: RIYQyIQSR (peptide)
peptide: RIYQ[pY]IQSR
B16: SMSsLSREV (peptide)
peptide: SMS[pS]LSREV
B17: RLLsFQRYL (peptide)
peptide: RLL[pS]FQRYL
B18: SVKPRRTsL (peptide)
peptide: SVKPRRT[pS]L
B19: RPKtPPVVI (peptide)
peptide: RPK[pT]PPVVI
B20: SIMsPEIQL (peptide)
peptide: SIM[pS]PEIQL
B21: RPRIPsPIGF (peptide)
peptide: RPRIP[pS]PIGF
B22: SLFsPQNTL (peptide)
peptide: SLF[pS]PQNTL
B23: SISStPPAV (peptide)
peptide: SISS[pT]PPAV
B24: RPAFFsPSL (peptide)
peptide: RPAFF[pS]PSL
B25: RPRsPTGPSNSFL (peptide)
peptide: RPR[pS]PTGPSNSFL
B26: RRIsDPQVF (peptide)
peptide: RRI[pS]DPQVF
B27: RPYsPPFFSL (peptide)
peptide: RPY[pS]PPFFSL
B28: RPFsPREAL (peptide)
peptide: RPF[pS]PREAL
B29: KIKsFEVVF (peptide)
peptide: KIK[pS]FEVVF
B30: SPAsPKISL (peptide)
peptide: SPA[pS]PKISL
B31: RPRPVsPSSLL (peptide)
peptide: RPRPV[pS]PSSLL
B32: RRGsFEVTL (peptide)
peptide: RRG[pS]FEVTL
B33: SPFKRQLsL (peptide)
peptide: SPFKRQL[pS]L
B34: KRFsGTVRL (peptide)
peptide: KRF[pS]GTVRL
B35: RRSsFLQVF (peptide)
peptide: RRS[pS]FLQVF
B36: RPRsISVEEF (peptide)
peptide: RPR[pS]ISVEEF
B37: RRFsGTAVY (peptide)
peptide: RRF[pS]GTAVY
B38: LPAsPRARL (peptide)
peptide: LPA[pS]PRARL
B39: RPDVAKRLsL (peptide)
peptide: RPDVAKRL[pS]L
B40: RRPsLLSEF (peptide)
peptide: RRP[pS]LLSEF
B41: RIYQyIQSRF (peptide)
peptide: RIYQ[pY]IQSRF
B42: RRLsFLVSY (peptide)
peptide: RRL[pS]FLVSY
B43: FRRsPTKSSLDY (peptide)
peptide: FRR[pS]PTKSSLDY

The target in the first experiment is T1, biotinylated HLA-A*02:01 with β2m (human, biotinylated).
T1 construct: HLA heavy chain mixed with excess β2m; the peptide is titrated onto it
The experiment can be described thus: AlphaScreen, peptide titrated on biotinylated HLA + b2m. On the procedure:
(§1) An AlphaScreen® assay was used to evaluate the binding of peptides to HLA molecules. Donor beads conjugated with streptavidin, and acceptor beads conjugated with the anti-human HLA class I antibody W6/32, were used to assess peptide binding. Biotinylated HLAs (A*02:01, B*07:02, C*07:01, or C*07:02) were mixed with a fixed excess of β2m and the mixtures added to each well of a 384-well microplate. Serial dilutions of the synthesized phosphopeptides were added to the wells, and the resultant HLA/β2/peptide mixtures were incubated overnight at 18° C. W6/32 conjugated acceptor beads were subsequently added to the wells, and the mixture was incubated for 1 hour at 21° C. Streptavidin conjugated donor beads were then added to the wells, and the mixture was incubated for a further 1 hour at 21° C.
(§2) The microplate was read using the PerkinElmer® plate reader, and data were plotted using the Michaelis-Menten equation to determine the Kd for each phosphopeptide.
Regarding B1, the Kd was determined as 46.9 nM.

Regarding B2, the Kd turned out to be 306 nM.

As for B3, the Kd amounted to 31.9 nM.

For the molecule B4, the binding result is on record as “no binding”.

As for B5, the Kd was found to be 466 nM.

As for B6, the Kd turned out to be 149 nM.

On to B7, for which the Kd came to 278 nM.

With B8, the Kd is 255 nM.

B9: the Kd is 227 nM.

With B10, the binding result is recorded as “no binding”.

Take B11: the dissociation constant Kd stood at 121 nM.

On to B12, for which the binding result was “no binding”.

Turning to B13, the Kd is 90.6 nM.

For the molecule B14, the Kd amounted to 114 nM.

On to B15, for which the binding result is recorded as “no binding”.

Take B16: the Kd stood at 927 nM.

B17: the Kd came out at 49.7 nM.

For B18, the binding result is given as “no binding”.

As for B19, the binding result is given as “no binding”.

As for B20, the dissociation constant Kd was 84 nM.

For the molecule B21, the binding result was “no binding”.

For B22, the Kd worked out at 116 nM.

Consider B23, for which the dissociation constant (Kd) was 169 nM.

For the molecule B24, the binding result is reported as “no binding”.

For the molecule B25, the binding result is “no binding”.

Another experiment concerns the target T2, biotinylated HLA-B*07:02 with β2m (human, biotinylated).
T2 construct: also called B*07:02 (as the text prints it)
The description is as above. On the procedure:
as §1, §2
On to B1, for which the binding result is recorded as “no binding”.

In the case of B2, the binding result is on record as “no binding”.

Consider B26, for which the binding result is “no binding”.

Consider B3, for which the Kd turned out to be 642 nM.

With B4, the Kd amounted to 223 nM.

On to B27, for which the Kd stood at 157 nM.

For the molecule B28, the Kd stood at 163 nM.

Regarding B29, the binding result is recorded as “no binding”.

For the molecule B5, the binding result was “no binding”.

Consider B6, for which the binding result is on record as “no binding”.

Turning to B30, the Kd stood at 275 nM.

As for B7, the binding result was “no binding”.

As to B31, the Kd came out at 186 nM.

Regarding B9, the binding result is “no binding”.

For the molecule B10, the binding result is given as “no binding”.

B11: the binding result was “no binding”.

As to B32, the binding result is recorded as “no binding”.

Regarding B12, the Kd was found to be 117 nM.

Take B33: the Kd was found to be 64.7 nM.

For B16, the binding result is recorded as “no binding”.

On to B17, for which the binding result is “no binding”.

Turning to B20, the binding result is recorded as “no binding”.

With B21, the Kd turned out to be 84.4 nM.

For B34, the binding result was “no binding”.

Regarding B35, the binding result is “no binding”.

For B36, the dissociation constant Kd was found to be 86.1 nM.

As for B37, the binding result was “no binding”.

In the case of B38, the Kd amounted to 83.5 nM.

For the molecule B23, the binding result is recorded as “no binding”.

Turning to B24, the dissociation constant Kd was found to be 398 nM.

With B25, the dissociation constant (Kd) was 360 nM.

As for B39, the Kd was determined as 216 nM.

A further experiment concerns the target biotinylated HLA-C*07:01 with β2m (human, biotinylated). The experiment is described as above. On the procedure: as §1, §2
Consider B1, for which the binding result is on record as “no binding”.

Take B2: the binding result is on record as “no binding”.

Take B26: the Kd was 11.4 nM.

As to B3, the Kd stood at 962 nM.

With B40, the Kd turned out to be 804 nM.

Turning to B5, the binding result is given as “no binding”.

For B6, the binding result is reported as “no binding”.

On to B7, for which the binding result was “no binding”.

On to B41, for which the Kd was 477 nM.

For B8, the binding result was “no binding”.

Take B11: the binding result was “no binding”.

With B32, the Kd is 16.6 nM.

Take B16: the binding result is on record as “no binding”.

In the case of B18, the binding result is given as “no binding”.

Regarding B37, the Kd came out at 2180 nM.

In the case of B42, the Kd was 1570 nM.

Consider B23, for which the binding result is “no binding”.

For the next experiment, the target named is biotinylated HLA-C*07:02 with β2m (human, biotinylated). Described as above. On the procedure:
as §1, §2
B1: the binding result is reported as “no binding”.

Regarding B2, the binding result is on record as “no binding”.

With B26, the Kd turned out to be 19.9 nM.

In the case of B3, the Kd was determined as 413 nM.

Regarding B40, the Kd was 35.7 nM.

Take B5: the binding result is listed as “no binding”.

Turning to B6, the binding result is reported as “no binding”.

B7: the binding result is given as “no binding”.

For B41, the Kd was 377 nM.

Take B9: the binding result is recorded as “no binding”.

For the molecule B43, the Kd is 98.6 nM.

Regarding B11, the binding result was “no binding”.

Consider B32, for which the Kd stood at 15.9 nM.

For the molecule B16, the binding result was “no binding”.

Consider B18, for which the binding result is given as “no binding”.

In the case of B35, the Kd is 19 nM.

Consider B37, for which the dissociation constant (Kd) was determined as 16.7 nM.

Turning to B42, the Kd came out at 113 nM.

For B23, the binding result is listed as “no binding”.
